Assay results as given in patent publication US12503518B2, “Heparanase-neutralizing A54 monoclonal antibody” (TECHNION RESEARCH & DEVELOPMENT FOUNDATION LIMITED, priority 2020, dated 2025).

Legend:
[1] = biological target: T1, recombinant human heparanase (Homo sapiens, UniProt Q9Y251); assay: heparanase activity assay: release of HS degradation fragments from 35S-labeled ECM; format: biochemical
T1 construct: purified recombinant active heparanase (200 ng) was pre incubated with the various hybridoma supernatants; recombinant active heparanase (200 ng) was preincubated with control mouse IgG or purified mAb A54
T1 sequence (Q9Y251 158-543 limits assumed): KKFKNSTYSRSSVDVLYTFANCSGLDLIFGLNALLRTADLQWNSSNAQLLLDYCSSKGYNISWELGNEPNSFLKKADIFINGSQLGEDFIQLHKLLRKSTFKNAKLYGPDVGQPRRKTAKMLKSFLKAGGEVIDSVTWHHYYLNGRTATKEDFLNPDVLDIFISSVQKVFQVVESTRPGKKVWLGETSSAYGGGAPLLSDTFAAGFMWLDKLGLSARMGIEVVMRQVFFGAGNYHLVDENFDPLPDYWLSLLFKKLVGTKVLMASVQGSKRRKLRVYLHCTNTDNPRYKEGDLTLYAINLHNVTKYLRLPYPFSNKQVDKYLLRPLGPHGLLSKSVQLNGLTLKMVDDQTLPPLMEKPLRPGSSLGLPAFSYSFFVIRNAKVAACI
T1 sequence (Q9Y251 36-109 limits assumed): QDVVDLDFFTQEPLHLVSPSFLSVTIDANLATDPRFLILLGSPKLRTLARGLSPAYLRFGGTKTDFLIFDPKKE
Procedure: Cell lysates, heparanase activity and protein blotting. Preparation of cell lysates, protein blotting, and measurement of heparanase enzymatic activity were carried out as described (Arvatz et al. Faseb J 2011; 24(12):4969-76). For inhibition studies, highly purified recombinant heparanase (200 ng) was pre-incubated with the indicated antibody ([…]) for 30 min on ice under neutral pH conditions (pH 7.2) before being added to ^35S-labelled ECM, used as a naturally produced substrate for heparanase (Gingis-Velitski et al. 2007, ibid.).
ECM degradation assay. […] More detail about the preparation of this substrate and its use for the heparanase assay can be found in: Current Protocols in Cell Biology (Vlodavsky 2001; pp. 10.4.1-10.4.14). Briefly, sulfate [^35S] labeled ECM coating the surface of 35 mm tissue culture dishes, is incubated (4 h, 37° C., pH 6.0, 1 ml final volume) with recombinant human heparanase (200 ng/ml) in the absence and presence of the A54 mAb. The reaction mixture contains: 50 mM NaCl, 1 mM DTT, 1 mM CaCl2), and 10 mM buffer Phosphate-Citrate, pH 6.0. To evaluate the occurrence of proteoglycan degradation, the incubation medium is collected and applied for gel filtration on Sepharose 6B columns (0.9×30 cm). Fractions (0.2 ml) are eluted with PBS and counted for radioactivity. […]
In order to select the hybridoma clone that best inhibits heparanase enzymatic activity, supernatants of the various hybridomas, raised against the 65 kDa latent heparanase protein, were collected, pre-incubated with recombinant heparanase and examined for the capacity to inhibit the release of heparan sulfate (HS) degradation fragments from sulfate labeled ECM. […] The mixture was then applied onto ^35S-labeled ECM-coated dishes and heparanase activity was determined as described under “Materials and Methods” above.
Next, the ability of purified mAb A54 to inhibit heparanase enzymatic activity was examined. […] The mixture was then applied onto dishes coated with ^35S-labeled ECM, and heparanase enzymatic activity was determined as described in ‘Methods’.

U87 glioma cells = assay: Matrigel invasion assay; format: cell-based, human; settings: antibody 2 g, 6 h, vs control mouse IgG; p=0.001; FIG. 4C
Procedure: Matrigel invasion assay. Invasion assay was performed using modified Boyden chambers with polycarbonate Nucleopore membrane, essentially as described (Arvatz et al. 2011, ibid.). Briefly, filters (6.5 mm in diameter, 8 μm pore-size) were coated with Matrigel (30 μl); Cells (2×10^5) in 100 μl of serum-free medium were seeded in triplicate on the upper part of each chamber in the presence of the indicated antibody, and the lower compartment was filled with 600 μl medium supplemented with 10% FCS. After incubation for 5 h at 37° C. in a 5% CO2 incubator, non-invading cells on the upper surface of the filter were wiped with a cotton swab, and migrated cells on the lower surface of the filter were fixed, stained with 0.5% crystal violet (Sigma) and counted by examination of at least seven microscopic fields (Barash et al., J Natl Cancer Inst. 110:1102-1114, 2018).
Thereafter, the antibody effect on cell invasion was examined. Briefly, U87 glioma cells (1×10^5) were plated onto Matrigel-coated 8-μm Transwell filters in the presence of control mouse IgG or mAb A54 ([…]). Invading cells adhering to the lower side of the membrane were visualized after 6 h (FIGS. 4A-B) and quantified (FIG. 4C; number of invading cells per high power field; *p=0.001) as described in ‘Methods’.

LPS-induced sepsis = LPS-induced sepsis survival; format: in vivo, C57BL/6 mice; settings: 500 μg/mouse 30 min before LPS (15 mg/kg, i.p.); monitored 8 days
Procedure: In subsequent studies, the effect of mAb A54 on LPS-induced sepsis, was investigated. C57BL/6 mice (n=8) were treated with A54 mAb (500 μg/mouse) or Roneparstat (SST) (1.2 mg/mouse) or PBS as control, 30 min before LPS injection (15 mg/kg, i.p.). SST was given once again (1.2 mg/mouse) 16 hours after LPS administration. Survival of mice was monitored every 12 h for 8 days (FIG. 10).

B1: mAb A54: heparanase-neutralizing murine monoclonal antibody, IgG1-Kappa; VH SEQ ID NO: 7, VL SEQ ID NO: 8; binds HBD-II of heparanase (antibody, listed as Mus musculus, V domains shown)
VH: QVQLQQSGAELAKPGASVRMSCKASGYTFTNYWMHWVKQRPGQGLEWIGYINPTTGYTEYNQKFKDKATLTADKSSSTAYMQLSSLTSEDSAVYYCARGGAGYDYDEDYAMDYWGQGTSVTVSS
VL: DIVLTQSPASLAVSLGQRATISCRASESVEYFGTSYMNWYQQKPGQPPKLLIYLASILESGIPARFSGSGSGTDFTLNIHPVEEEDAATYYCQQSNEDPYTFGGGTKLEIK
- inhibition of the enzyme ([1]; 0.1 μg/ml antibody, preincubated 1 h with active heparanase (200 ng), FIG. 3B): ~75%
- inhibition of heparanase enzymatic activity ([1]; 1 μg/ml antibody, preincubated 1 h with active heparanase (200 ng), FIG. 3A): complete inhibition
- decrease in the amount of released sulfate labeled HS degradation products ([1]; hybridoma supernatant pre-incubated 2 h on ice with recombinant active heparanase (200 ng), FIG. 1): ~80%
- attenuation of invasion of U87 glioma cells through Matrigel (U87 glioma cells): ~90%
- survival after LPS injection (LPS-induced sepsis): effectively protects mice from LPS-induced sepsis
